{"source": "the RNAGym collection of RNA variant scans (doi:10.1073/pnas.2313332121)", "parents": {"B1": {"name": "TPR 5TU (parent)", "chain": "GGAUCUUCUCGAUCUAACAAAAAAGACAAAUCUGCCACAAAGCUUGAGAGCAUCUUCGGAUGCAGAGGCGGCAGCCUUCGGUGGCGCGAUAGCGCCAACGUUCUCAACUAUGACACGCAAAACGCGUGCUCCGUUGAAUGGAGUUUAUCAUG"}}, "note": "Variants at the floor of the assay were thinned out.", "data": [{"variants_of": "B1", "experiment": "polymerase ribozyme fitness, log enrichment relative to wild type (log ratio); higher = more active; in vitro selection for triplet polymerase activity", "summary_of_the_method": "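Mutant libraries of both subunits of a heterodimeric triplet polymerase ribozyme were PCR-built, transcribed, and selected once in triplicate, with frozen incubation at −7 °C and capture of gel-excised extended constructs on streptavidin beads before RT-PCR. Illumina sequencing of input and output libraries was filtered to genotypes with ≥10 input reads and ≥1 read per output. Fitness is the logarithm of genotype enrichment over wild-type enrichment, using inverse-variance-weighted replicate averages. The logarithm is base 2.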", "values": [{"variant": "G81A G92C C99U G124C G133U", "polymerase ribozyme fitness (log ratio)": "≤ -4.2"}, {"variant": "U82G A98G", "polymerase ribozyme fitness (log ratio)": 0.302}, {"variant": "U78A C103G U134A", "polymerase ribozyme fitness (log ratio)": "≤ -4.2"}, {"variant": "G74C C93U G143U", "polymerase ribozyme fitness (log ratio)": "≤ -4.2"}, {"variant": "G80A C85A A138G", "polymerase ribozyme fitness (log ratio)": -3.67}, {"variant": "G80C G88C C103A A122U A138G", "polymerase ribozyme fitness (log ratio)": "≤ -4.2"}, {"variant": "C76G U77C G133U", "polymerase ribozyme fitness (log ratio)": "≤ -4.2"}, {"variant": "U78A G83U", "polymerase ribozyme fitness (log ratio)": "≤ -4.2"}, {"variant": "U77C G81A G86U G100A G133U", "polymerase ribozyme fitness (log ratio)": "≤ -4.2"}, {"variant": "C79A G141C", "polymerase ribozyme fitness (log ratio)": -3.95}, {"variant": "C76U C95U C96U G124U", "polymerase ribozyme fitness (log ratio)": -1.17}, {"variant": "G83U G94A U127C", "polymerase ribozyme fitness (log ratio)": -3.92}, {"variant": "G80A A113C U145A", "polymerase ribozyme fitness (log ratio)": -3.89}, {"variant": "C79U G141A", "polymerase ribozyme fitness (log ratio)": -2.05}, {"variant": "C76U G128U", "polymerase ribozyme fitness (log ratio)": -3.27}, {"variant": "G74C C79G U82A C93U C108U", "polymerase ribozyme fitness (log ratio)": "≤ -4.2"}, {"variant": "G74A G92C C149A", "polymerase ribozyme fitness (log ratio)": "≤ -4.2"}, {"variant": "G83U C103U C116A G117A U148A", "polymerase ribozyme fitness (log ratio)": "≤ -4.2"}, {"variant": "U77C C114U", "polymerase ribozyme fitness (log ratio)": "≤ -4.2"}, {"variant": "G80U G86U U111C", "polymerase ribozyme fitness (log ratio)": "≤ -4.2"}, {"variant": "U78C G83C G126A", "polymerase ribozyme fitness (log ratio)": -0.883}, {"variant": "U78C U82G U102G", "polymerase ribozyme fitness (log ratio)": -3.57}, {"variant": "C75U C79G", "polymerase ribozyme fitness (log ratio)": -4.07}, {"variant": "G83A C116U", "polymerase ribozyme fitness (log ratio)": -0.551}, {"variant": "G74A C103G", "polymerase ribozyme fitness (log ratio)": "≤ -4.2"}, {"variant": "A73U U148C G152C", "polymerase ribozyme fitness (log ratio)": "≤ -4.2"}, {"variant": "G80A C85U C118A", "polymerase ribozyme fitness (log ratio)": -0.52}, {"variant": "G81U G84C", "polymerase ribozyme fitness (log ratio)": -3.22}, {"variant": "G74A C96G", "polymerase ribozyme fitness (log ratio)": -2.97}, {"variant": "U82A A106C", "polymerase ribozyme fitness (log ratio)": -0.884}, {"variant": "U82A A106U", "polymerase ribozyme fitness (log ratio)": -1.16}, {"variant": "U82G G133C G140A", "polymerase ribozyme fitness (log ratio)": -3.39}, {"variant": "U82A C85G", "polymerase ribozyme fitness (log ratio)": -3.05}, {"variant": "C76A A142C", "polymerase ribozyme fitness (log ratio)": -2.3}, {"variant": "C75U G83A", "polymerase ribozyme fitness (log ratio)": -0.0803}, {"variant": "C75U G83U", "polymerase ribozyme fitness (log ratio)": -3.08}, {"variant": "U82G C93U G141A", "polymerase ribozyme fitness (log ratio)": -0.284}, {"variant": "G74A A106U A107U G133U", "polymerase ribozyme fitness (log ratio)": -3.93}, {"variant": "A73U G83U G84U A97C G100U C105A", "polymerase ribozyme fitness (log ratio)": "≤ -4.2"}, {"variant": "C75G C93A", "polymerase ribozyme fitness (log ratio)": -4.14}, {"variant": "G81A A147U", "polymerase ribozyme fitness (log ratio)": 0.732}, {"variant": "C76U U102G", "polymerase ribozyme fitness (log ratio)": -2.89}, {"variant": "C75U C95U", "polymerase ribozyme fitness (log ratio)": 0.131}, {"variant": "C76A G83U C99U A122U", "polymerase ribozyme fitness (log ratio)": "≤ -4.2"}, {"variant": "C76A A97U", "polymerase ribozyme fitness (log ratio)": -1.06}, {"variant": "G80C A113G U134A", "polymerase ribozyme fitness (log ratio)": "≤ -4.2"}, {"variant": "G81C A107U", "polymerase ribozyme fitness (log ratio)": -3.29}, {"variant": "C79U G94C", "polymerase ribozyme fitness (log ratio)": -3.64}, {"variant": "U82G C95U U102G", "polymerase ribozyme fitness (log ratio)": -3.59}, {"variant": "C76A C87G", "polymerase ribozyme fitness (log ratio)": -4.07}, {"variant": "G81A C118G", "polymerase ribozyme fitness (log ratio)": -1.67}, {"variant": "U82G A106U C118U", "polymerase ribozyme fitness (log ratio)": -0.65}, {"variant": "G80A C99G G124A", "polymerase ribozyme fitness (log ratio)": -0.389}, {"variant": "G74U G83C G94C", "polymerase ribozyme fitness (log ratio)": "≤ -4.2"}, {"variant": "C75U G94A A142C", "polymerase ribozyme fitness (log ratio)": -2.13}, {"variant": "U82G C105U", "polymerase ribozyme fitness (log ratio)": 1.06}, {"variant": "C76U G83C U134A A142U", "polymerase ribozyme fitness (log ratio)": "≤ -4.2"}, {"variant": "G83C G143U", "polymerase ribozyme fitness (log ratio)": -2.8}, {"variant": "G83C A107U G143A U146C", "polymerase ribozyme fitness (log ratio)": "≤ -4.2"}, {"variant": "C76U C105U C116G", "polymerase ribozyme fitness (log ratio)": -1.03}, {"variant": "C76A C85U U144C", "polymerase ribozyme fitness (log ratio)": -0.235}, {"variant": "G80A A91G A122U", "polymerase ribozyme fitness (log ratio)": -2.08}, {"variant": "G74U A107G", "polymerase ribozyme fitness (log ratio)": "≤ -4.2"}, {"variant": "U78G G126U", "polymerase ribozyme fitness (log ratio)": "≤ -4.2"}, {"variant": "G83C C95U", "polymerase ribozyme fitness (log ratio)": -1.81}, {"variant": "G83C C118A", "polymerase ribozyme fitness (log ratio)": -1.14}, {"variant": "U82A C105U", "polymerase ribozyme fitness (log ratio)": 0.242}, {"variant": "G83A C118U G126A", "polymerase ribozyme fitness (log ratio)": -2.89}, {"variant": "G74A U90C G94A A98U", "polymerase ribozyme fitness (log ratio)": "≤ -4.2"}, {"variant": "U78G U148C", "polymerase ribozyme fitness (log ratio)": -4.15}, {"variant": "G81A A91U U101G C103A", "polymerase ribozyme fitness (log ratio)": "≤ -4.2"}, {"variant": "C75A G86A U104G A106G", "polymerase ribozyme fitness (log ratio)": "≤ -4.2"}, {"variant": "G81C C85U A97G U109G", "polymerase ribozyme fitness (log ratio)": -0.959}, {"variant": "C79U C96U", "polymerase ribozyme fitness (log ratio)": -3.43}, {"variant": "G80A C93G A97G A115C", "polymerase ribozyme fitness (log ratio)": -3.64}, {"variant": "C76G C85U U139C", "polymerase ribozyme fitness (log ratio)": "≤ -4.2"}, {"variant": "C76U U78C A137G", "polymerase ribozyme fitness (log ratio)": -2.11}, {"variant": "G74C G80C G92U C103G A106U", "polymerase ribozyme fitness (log ratio)": "≤ -4.2"}, {"variant": "C79G C85U", "polymerase ribozyme fitness (log ratio)": -4.04}, {"variant": "G83A C132U", "polymerase ribozyme fitness (log ratio)": -0.931}, {"variant": "G83C A97U C103G U139C", "polymerase ribozyme fitness (log ratio)": "≤ -4.2"}, {"variant": "C76U A89C C118G", "polymerase ribozyme fitness (log ratio)": -1.8}, {"variant": "G83C C85U C87U", "polymerase ribozyme fitness (log ratio)": -2.71}, {"variant": "G83A C93U A121U", "polymerase ribozyme fitness (log ratio)": -2.08}]}]}
